PMC6289755 (Journal of molecular biology, 2018)

Legend:
TRIM25 SPRY = TRIM25 SPRY (human, UniProt Q14258 410-630); assay: EMSA
TRIM25 CCD-SPRY = TRIM25 CCD-SPRY (human, UniProt Q14258 189-630); assay: EMSA
TRIM25 7K peptide = biological target: T1, TRIM25 7K peptide (human, UniProt Q14258 379-394); assay: EMSA
T1 chain: PVKKVSKEEKKSKKPP

TRIM25 ΔSPRY (RBCC) = TRIM25 ΔSPRY (RBCC) (human, UniProt Q14258 1-379); assay: EMSA
TRIM25 CCD = TRIM25 CCD (human, UniProt Q14258 189-379); assay: EMSA
TRIM25 CCD+7K = TRIM25 CCD+7K (human, UniProt Q14258 189-409); assay: EMSA
TRIM25 WT [1] = biological target: T2, TRIM25 WT (human, UniProt Q14258 1-630); assay: EMSA
TRIM25 7KA mutant = TRIM25 7KA mutant (human, UniProt Q14258 1-630, K381A;K382A;K385A;K388A;K389A;K391A;K392A); assay: SEC-MALS
TRIM25 WT [2] = biological target: T2, TRIM25 WT; assay: SEC-MALS
SEC-MALS = biological target: the molecule itself; assay: SEC-MALS

T2 sequence (Q14258 whole entry): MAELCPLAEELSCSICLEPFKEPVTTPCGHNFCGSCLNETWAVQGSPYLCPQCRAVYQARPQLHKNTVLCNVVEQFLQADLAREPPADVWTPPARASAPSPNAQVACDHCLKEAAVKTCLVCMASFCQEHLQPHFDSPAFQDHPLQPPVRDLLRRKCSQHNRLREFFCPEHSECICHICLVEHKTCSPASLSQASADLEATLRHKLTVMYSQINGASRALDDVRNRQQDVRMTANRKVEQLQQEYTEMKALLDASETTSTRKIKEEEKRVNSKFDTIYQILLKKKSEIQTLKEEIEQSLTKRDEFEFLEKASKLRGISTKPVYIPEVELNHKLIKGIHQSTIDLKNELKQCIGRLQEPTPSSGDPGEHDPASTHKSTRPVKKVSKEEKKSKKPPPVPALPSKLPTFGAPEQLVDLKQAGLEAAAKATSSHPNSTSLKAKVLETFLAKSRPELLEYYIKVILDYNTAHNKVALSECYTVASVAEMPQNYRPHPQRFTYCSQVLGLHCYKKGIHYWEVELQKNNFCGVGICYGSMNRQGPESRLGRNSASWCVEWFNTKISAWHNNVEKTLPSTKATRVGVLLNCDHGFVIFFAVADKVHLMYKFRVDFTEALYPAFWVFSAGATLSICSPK
Sequence of TRIM25 CCD-SPRY (Q14258 189-630): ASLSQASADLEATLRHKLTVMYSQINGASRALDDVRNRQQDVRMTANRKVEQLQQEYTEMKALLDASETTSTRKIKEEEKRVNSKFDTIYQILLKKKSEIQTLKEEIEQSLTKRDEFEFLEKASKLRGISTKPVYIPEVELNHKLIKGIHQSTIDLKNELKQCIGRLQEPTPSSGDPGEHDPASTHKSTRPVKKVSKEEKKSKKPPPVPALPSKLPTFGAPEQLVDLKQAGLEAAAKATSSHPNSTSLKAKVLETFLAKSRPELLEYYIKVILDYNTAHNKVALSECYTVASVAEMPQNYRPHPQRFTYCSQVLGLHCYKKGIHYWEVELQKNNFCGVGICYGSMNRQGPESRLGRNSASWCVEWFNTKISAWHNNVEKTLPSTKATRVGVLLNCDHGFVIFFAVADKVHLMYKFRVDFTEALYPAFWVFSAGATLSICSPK
Sequence of TRIM25 CCD+7K (Q14258 189-409): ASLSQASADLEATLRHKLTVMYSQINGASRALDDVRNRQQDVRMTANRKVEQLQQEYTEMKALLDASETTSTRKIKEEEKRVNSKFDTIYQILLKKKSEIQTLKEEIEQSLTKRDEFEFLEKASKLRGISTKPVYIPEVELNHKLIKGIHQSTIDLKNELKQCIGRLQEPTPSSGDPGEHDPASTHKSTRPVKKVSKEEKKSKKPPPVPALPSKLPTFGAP

B1: 28-bp dsRNA, fluorescent (dsRNA)
RNA 1: AUGGCUAGCUGGAGCCACCCGCAGUUCG
RNA 2: CGAACUGCGGGUGGCUCCAGCUAGCCAU
- Kd (TRIM25 SPRY): 3470 ± 1170 nM
- Kd (TRIM25 CCD-SPRY): 110 ± 20 nM
- binding result (TRIM25 7K peptide): no binding
- binding result (TRIM25 ΔSPRY (RBCC)): no binding
- binding result (TRIM25 CCD): no binding
- binding result (TRIM25 CCD+7K): no binding
- Kd (TRIM25 WT [1]): 260 ± 30 nM

B2: 56-bp dsRNA (dsRNA)
RNA 1: AUGGCUAGCUGGAGCCACCCGCAGUUCGUACAAGGAUGACGAUGACAAGGGUACAA
RNA 2: UUGUACCCUUGUCAUCGUCAUCCUUGUACGAACUGCGGGUGGCUCCAGCUAGCCAU
- binding result (TRIM25 7KA mutant): no binding
- binding result (TRIM25 WT [2]): binds

B3: Full-length TRIM25 7KA mutant, purified (enzyme, human, UniProt Q14258 1-630, looked up)
chain: MAELCPLAEELSCSICLEPFKEPVTTPCGHNFCGSCLNETWAVQGSPYLCPQCRAVYQARPQLHKNTVLCNVVEQFLQADLAREPPADVWTPPARASAPSPNAQVACDHCLKEAAVKTCLVCMASFCQEHLQPHFDSPAFQDHPLQPPVRDLLRRKCSQHNRLREFFCPEHSECICHICLVEHKTCSPASLSQASADLEATLRHKLTVMYSQINGASRALDDVRNRQQDVRMTANRKVEQLQQEYTEMKALLDASETTSTRKIKEEEKRVNSKFDTIYQILLKKKSEIQTLKEEIEQSLTKRDEFEFLEKASKLRGISTKPVYIPEVELNHKLIKGIHQSTIDLKNELKQCIGRLQEPTPSSGDPGEHDPASTHKSTRPVAAVSAEEAASAAPPPVPALPSKLPTFGAPEQLVDLKQAGLEAAAKATSSHPNSTSLKAKVLETFLAKSRPELLEYYIKVILDYNTAHNKVALSECYTVASVAEMPQNYRPHPQRFTYCSQVLGLHCYKKGIHYWEVELQKNNFCGVGICYGSMNRQGPESRLGRNSASWCVEWFNTKISAWHNNVEKTLPSTKATRVGVLLNCDHGFVIFFAVADKVHLMYKFRVDFTEALYPAFWVFSAGATLSICSPK
- binding result (SEC-MALS): binds
